The values below come from patent publication US20050112119A1 (Takeda / Millennium, published 2005).

Assay [1] addresses T1, human CXCR3 (human, UniProt P49682 1-368).
T1 sequence: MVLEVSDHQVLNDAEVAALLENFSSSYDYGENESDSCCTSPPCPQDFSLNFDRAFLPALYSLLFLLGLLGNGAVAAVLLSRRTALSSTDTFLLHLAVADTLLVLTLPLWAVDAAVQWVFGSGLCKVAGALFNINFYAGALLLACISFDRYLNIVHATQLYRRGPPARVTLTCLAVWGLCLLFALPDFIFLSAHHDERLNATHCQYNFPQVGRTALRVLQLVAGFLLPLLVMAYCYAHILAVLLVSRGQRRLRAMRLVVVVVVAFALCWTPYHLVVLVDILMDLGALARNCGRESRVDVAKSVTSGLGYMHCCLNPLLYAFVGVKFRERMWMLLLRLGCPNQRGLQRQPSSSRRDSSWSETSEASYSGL
Put plainly: cell-based or functional assay.

Another assay has as its target T2, human CCR3 (human, UniProt P51677 1-355).
T2 construct: whole, on cells
T2 sequence (looked up): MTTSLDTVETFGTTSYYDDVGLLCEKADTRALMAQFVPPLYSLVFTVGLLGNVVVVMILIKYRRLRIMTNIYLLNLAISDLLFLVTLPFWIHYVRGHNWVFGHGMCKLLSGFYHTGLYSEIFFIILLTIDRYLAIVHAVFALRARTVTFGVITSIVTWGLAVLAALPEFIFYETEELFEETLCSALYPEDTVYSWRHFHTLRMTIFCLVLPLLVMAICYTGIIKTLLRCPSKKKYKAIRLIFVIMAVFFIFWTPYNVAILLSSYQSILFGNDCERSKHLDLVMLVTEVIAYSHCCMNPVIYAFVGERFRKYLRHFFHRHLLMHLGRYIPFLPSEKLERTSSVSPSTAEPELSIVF
Kind of assay: flow cytometry, hybridoma supernatant on L1.2 transfectants, PE anti-human IgG. The method, then:
(§1) Three days after the last immunization, five animals were sacrificed, their spleen cells were isolated, combined and used to produce hybridomas by standard methods. About 3×10⁸ spleen cells were fused with 5- to 10-fold fewer SP2/0-Ag14 fusion partner cells (ATCC, No. CRL-1581, Manassas, Va.) or P3X63Ag8.653 fusion partner cells (ATCC, No. CRL-1580, Manassas, Va.), by brief resuspension in polyethylene glycol 1500 (50% in 75 mM HEPES, Boehringer-Mannheim, now Roche Applied Science, Indianapolis, Ind.), to generate the hybridomas. After fusion, the cells were selected by incubation for two weeks in hypoxanthine, aminopterin, thymidine (HAT) medium specificity was assessed by staining CXCR3 transfectants, control L1.2 cells and L1.2 cells that expressed human CCR1, CCR2, CCR3, CCR4, CCR5, CXCR1, CXCR2, or CXCR4 (Qin et al. (1998) J. Clin. Invest. 101:746-54). The binding of antibody from the hybridoma supernatants to receptor transfectants was detected by phycoerythrin-conjugated anti-human IgG with analysis by flow cytometry. Positive wells were those that contained supernatant which stained the CXCR3 transfectants, but not L1.2 cells which expressed the other chemokine receptors tested. Positive wells were subcloned to yield hybridoma cell lines. Hybridoma cultures were maintained in DMEM with 10% fetal calf serum, 10 units/ml interleukin-6, 0.1% L-glutamine, and 0.1% penicillin/streptomycin.

In the next assay the target is T3, human CCR4 (human, UniProt P51679 1-360).
T3 construct: whole, on cells
T3 sequence (looked up): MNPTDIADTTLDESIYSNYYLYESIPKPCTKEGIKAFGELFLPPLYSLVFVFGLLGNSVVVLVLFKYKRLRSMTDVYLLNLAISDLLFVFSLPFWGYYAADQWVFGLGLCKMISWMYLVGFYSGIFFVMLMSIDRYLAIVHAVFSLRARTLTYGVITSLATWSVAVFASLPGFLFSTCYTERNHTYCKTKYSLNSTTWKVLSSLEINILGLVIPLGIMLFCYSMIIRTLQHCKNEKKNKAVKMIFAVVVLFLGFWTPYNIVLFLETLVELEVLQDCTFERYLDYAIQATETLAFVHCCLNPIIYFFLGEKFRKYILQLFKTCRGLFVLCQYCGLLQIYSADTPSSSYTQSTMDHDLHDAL
The assay is described as above. The method, then:
as §1

A further assay deals with T4, human CCR5 (human, UniProt P51681 1-352).
T4 construct: whole, on cells
T4 sequence (P51681 whole entry): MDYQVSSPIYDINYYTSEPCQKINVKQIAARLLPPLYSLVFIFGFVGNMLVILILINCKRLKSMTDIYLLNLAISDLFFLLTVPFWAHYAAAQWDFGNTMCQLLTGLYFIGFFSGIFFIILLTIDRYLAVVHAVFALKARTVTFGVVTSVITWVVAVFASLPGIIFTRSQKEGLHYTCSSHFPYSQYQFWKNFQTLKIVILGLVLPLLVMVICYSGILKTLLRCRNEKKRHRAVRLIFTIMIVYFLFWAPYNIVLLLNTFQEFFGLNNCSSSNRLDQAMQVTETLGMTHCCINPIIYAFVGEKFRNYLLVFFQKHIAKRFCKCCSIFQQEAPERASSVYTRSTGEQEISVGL
The description is as above. The method, then:
as §1

For another assay, the target named is T5, human CXCR1 (human, UniProt P25024 1-350).
T5 construct: whole, on cells
T5 sequence (looked up): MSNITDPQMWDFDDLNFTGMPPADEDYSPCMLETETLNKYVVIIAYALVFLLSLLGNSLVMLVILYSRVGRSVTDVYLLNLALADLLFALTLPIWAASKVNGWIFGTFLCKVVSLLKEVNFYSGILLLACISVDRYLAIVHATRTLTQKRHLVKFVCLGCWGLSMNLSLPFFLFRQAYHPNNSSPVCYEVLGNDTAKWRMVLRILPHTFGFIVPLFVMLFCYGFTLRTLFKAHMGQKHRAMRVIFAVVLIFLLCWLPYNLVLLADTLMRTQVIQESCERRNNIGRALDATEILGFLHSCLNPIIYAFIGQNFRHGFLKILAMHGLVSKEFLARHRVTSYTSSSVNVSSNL
The description is as above. The method, then: as §1

A further assay deals with T6, human CXCR2 (human, UniProt P25025 1-360).
T6 construct: whole, on cells
T6 sequence (looked up): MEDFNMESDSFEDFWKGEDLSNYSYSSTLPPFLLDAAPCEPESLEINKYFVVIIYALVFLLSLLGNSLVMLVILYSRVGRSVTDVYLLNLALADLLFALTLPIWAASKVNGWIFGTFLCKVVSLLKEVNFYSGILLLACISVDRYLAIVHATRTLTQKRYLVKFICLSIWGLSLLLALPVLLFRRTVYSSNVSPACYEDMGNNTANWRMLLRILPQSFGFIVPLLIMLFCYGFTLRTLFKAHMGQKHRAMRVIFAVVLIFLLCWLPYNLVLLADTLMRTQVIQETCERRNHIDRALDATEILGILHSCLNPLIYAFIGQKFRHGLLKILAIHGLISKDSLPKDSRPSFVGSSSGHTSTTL
The description is as above. The method, then: as §1

In another assay the target is T7, human CXCR4 (human, UniProt P61073 1-352).
T7 construct: whole, on cells
T7 sequence (P61073 whole entry): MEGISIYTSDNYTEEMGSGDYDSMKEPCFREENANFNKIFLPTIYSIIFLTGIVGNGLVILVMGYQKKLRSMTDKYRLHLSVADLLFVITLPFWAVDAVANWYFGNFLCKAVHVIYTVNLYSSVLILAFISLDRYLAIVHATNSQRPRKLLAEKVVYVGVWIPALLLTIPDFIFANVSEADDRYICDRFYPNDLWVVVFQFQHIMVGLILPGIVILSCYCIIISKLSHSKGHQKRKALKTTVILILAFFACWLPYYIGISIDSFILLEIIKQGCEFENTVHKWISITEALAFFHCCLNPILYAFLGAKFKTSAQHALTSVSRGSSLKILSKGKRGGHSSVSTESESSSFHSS
Described as above. The method, then: as §1

In a further assay the target is T8, human CCR1 (human, UniProt P32246 1-355).
T8 construct: whole, on cells
T8 sequence (looked up): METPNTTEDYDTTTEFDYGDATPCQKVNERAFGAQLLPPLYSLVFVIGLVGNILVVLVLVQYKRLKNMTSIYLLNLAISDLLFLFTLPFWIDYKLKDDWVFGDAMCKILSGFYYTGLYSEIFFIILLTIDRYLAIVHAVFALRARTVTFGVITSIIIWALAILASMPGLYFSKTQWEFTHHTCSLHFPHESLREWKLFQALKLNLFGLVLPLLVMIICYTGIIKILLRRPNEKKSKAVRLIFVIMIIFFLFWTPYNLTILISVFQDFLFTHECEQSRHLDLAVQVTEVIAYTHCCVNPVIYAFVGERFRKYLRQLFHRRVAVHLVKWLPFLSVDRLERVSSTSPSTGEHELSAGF
The description is as above. The method, then: as §1

Another assay has as its target T9, human CCR2 (human, UniProt P41597 1-374).
T9 construct: whole, on cells
Described as above. The method, then:
as §1

Assay [2] has as its target T1, human CXCR3. Kind of assay: flow cytometry on CXCR3 L1.2 transfectants, biotinylated antibody, streptavidin-PE; 100% is the fluorescence at 10 µg/ml. The method, then:
The strength of human monoclonal antibody 5H7 and human monoclonal antibody 7H5 binding to CXCR3 was measured using CXCR3 transfectants. The mean streptavidin-PE fluorescence detected when 10 μg/ml of each purified mAb was used to stain CXCR3 transfectants was used as 100% fluorescence.
A general note: A flow cytometer gives signals particle by particle.

Changes are numbered by the printed parent chain.

T9 sequence (P41597 whole entry): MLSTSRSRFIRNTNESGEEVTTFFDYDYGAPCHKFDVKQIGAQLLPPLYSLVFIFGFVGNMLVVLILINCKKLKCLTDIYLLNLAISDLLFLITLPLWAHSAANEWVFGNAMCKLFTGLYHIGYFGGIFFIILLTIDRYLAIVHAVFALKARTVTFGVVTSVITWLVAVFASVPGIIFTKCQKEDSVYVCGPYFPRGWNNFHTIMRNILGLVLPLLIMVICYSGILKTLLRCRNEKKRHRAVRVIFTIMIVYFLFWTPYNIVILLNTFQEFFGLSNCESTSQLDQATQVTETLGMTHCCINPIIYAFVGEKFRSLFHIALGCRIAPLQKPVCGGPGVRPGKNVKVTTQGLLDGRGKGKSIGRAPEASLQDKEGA

B1: human monoclonal antibody 5H7 (antibody, human IgG2, V domains shown)
VH: QVQVVQSGAEVKKPGASVKVSCKTSGYTFTGNYIHWVRQAPGQGLEWMGWINPNSGGTNFAQKFQGRVTMTRDTSITTAYMVLSRLRSDDTAVYYCARGGNNMIVVARGYYGMDVWGQGTTVTVSS
VL: DIQMTQSPSSLSASVGDRVTITCRASQSIGRYLNWYQQKPGKAPKLLIYGASSLQSGVPSRFSGSGSGTEFTLTISSLQPEDFATYYCQQSFRVPISFGQGTRLEIK
notes: The hybridoma antibody as tested is human IgG2, kappa; also called human mAb 5H7; antibody of hybridoma LS328-5H7-2-6 (ATCC PTA-5388)
What is called EC50 is the concentration needed to bring the measured effect to its halfway point. Low readings indicate a more potent agent, high ones a less potent agent. Take B1: the “IC50 of inhibition of chemotaxis of CXCR3 transfectants toward I-TAC” value with human CXCR3 [1] was 1.2 µg/mL. Moreover, the “IC50 of inhibition of chemotaxis of CXCR3 transfectants toward IP-10” value with human CXCR3 [1] was determined as 0.7 µg/mL. Further, the “IC50 of inhibition of chemotaxis of CXCR3 transfectants toward MIG” value in the assay with human CXCR3 [1] is 2.9 µg/mL. The binding result in the assay with human CCR3, with human CCR4, with human CCR5, with human CXCR1, in the assay with human CXCR2 and with human CXCR4 was “no binding” each time. The binding result in the assay with human CCR1 and in the assay with human CCR2 was “no binding” each time. Also, the response with human CXCR3 [2] was half-maximal at 0.5 nM (EC50).

B2: human monoclonal antibody 7H5 (antibody, human IgG2, V domains shown)
VH: B1 VH with T24A, N32Y, N54D, F60Y, T77S, S84N, R98K, N101I
VL: B1 VL with A25T, L73F, T74I, S97T
notes: The hybridoma antibody as tested is human IgG2, kappa; also called human mAb 7H5; antibody of hybridoma LS329-7H5-2-19-7 (ATCC PTA-5389)
For the molecule B2, the binding result with human CCR3, with human CCR4, with human CCR5, with human CXCR1, with human CXCR2 and with human CXCR4 was “no binding” in each case. For the same molecule, the binding result with human CCR1 and with human CCR2 was “no binding” in each case. The same molecule had a half-maximal effective concentration (EC50) in the assay with human CXCR3 [2] of 1.2 nM.
